# Reference: paper PMC7864056, “Functional and structural characterization of allosteric activation of phospholipase Cε by Rap1A” (The Journal of Biological Chemistry, 2020)
# B1: constitutively active and prenylated Homo sapiens Rap1A G12V, GTP-bound (natural protein, UniProt P62834 1-184, looked up)
# chain: MREYKLVVLGSVGVGKSALTVQFVQGIFVEKYDPTIEDSYRKQVEVDCQQCMLEILDTAGTEQFTAMRDLYMKNGQGFALVYSITAQSTFNDLQDLREQILRVKDTEDVPMILVGNKCDLEDERVVGKEQGQNLARQWCNCAFLESSAKSKINVNEIFYDLVRQINRKTPVEKKKPKKKSCLLL
# modifications: prenylated
# Assays:
# Assay in all cases: cell-based or functional assay
# [1] = molecular target: R. norvegicus PLCε PH-COOH K2152A (R. norvegicus, UniProt Q99P84 837-2281, K2152A)
# [2] = molecular target: R. norvegicus PLCε PH-COOH variant (residues 837-2282) (R. norvegicus, UniProt Q99P84 837-2281)
# [3] = molecular target: R. norvegicus PLCε PH-COOH K2150A (R. norvegicus, UniProt Q99P84 837-2281, K2150A)
# Sequence of R. norvegicus PLCε PH-COOH K2150A (Q99P84 837-2281 K2150A): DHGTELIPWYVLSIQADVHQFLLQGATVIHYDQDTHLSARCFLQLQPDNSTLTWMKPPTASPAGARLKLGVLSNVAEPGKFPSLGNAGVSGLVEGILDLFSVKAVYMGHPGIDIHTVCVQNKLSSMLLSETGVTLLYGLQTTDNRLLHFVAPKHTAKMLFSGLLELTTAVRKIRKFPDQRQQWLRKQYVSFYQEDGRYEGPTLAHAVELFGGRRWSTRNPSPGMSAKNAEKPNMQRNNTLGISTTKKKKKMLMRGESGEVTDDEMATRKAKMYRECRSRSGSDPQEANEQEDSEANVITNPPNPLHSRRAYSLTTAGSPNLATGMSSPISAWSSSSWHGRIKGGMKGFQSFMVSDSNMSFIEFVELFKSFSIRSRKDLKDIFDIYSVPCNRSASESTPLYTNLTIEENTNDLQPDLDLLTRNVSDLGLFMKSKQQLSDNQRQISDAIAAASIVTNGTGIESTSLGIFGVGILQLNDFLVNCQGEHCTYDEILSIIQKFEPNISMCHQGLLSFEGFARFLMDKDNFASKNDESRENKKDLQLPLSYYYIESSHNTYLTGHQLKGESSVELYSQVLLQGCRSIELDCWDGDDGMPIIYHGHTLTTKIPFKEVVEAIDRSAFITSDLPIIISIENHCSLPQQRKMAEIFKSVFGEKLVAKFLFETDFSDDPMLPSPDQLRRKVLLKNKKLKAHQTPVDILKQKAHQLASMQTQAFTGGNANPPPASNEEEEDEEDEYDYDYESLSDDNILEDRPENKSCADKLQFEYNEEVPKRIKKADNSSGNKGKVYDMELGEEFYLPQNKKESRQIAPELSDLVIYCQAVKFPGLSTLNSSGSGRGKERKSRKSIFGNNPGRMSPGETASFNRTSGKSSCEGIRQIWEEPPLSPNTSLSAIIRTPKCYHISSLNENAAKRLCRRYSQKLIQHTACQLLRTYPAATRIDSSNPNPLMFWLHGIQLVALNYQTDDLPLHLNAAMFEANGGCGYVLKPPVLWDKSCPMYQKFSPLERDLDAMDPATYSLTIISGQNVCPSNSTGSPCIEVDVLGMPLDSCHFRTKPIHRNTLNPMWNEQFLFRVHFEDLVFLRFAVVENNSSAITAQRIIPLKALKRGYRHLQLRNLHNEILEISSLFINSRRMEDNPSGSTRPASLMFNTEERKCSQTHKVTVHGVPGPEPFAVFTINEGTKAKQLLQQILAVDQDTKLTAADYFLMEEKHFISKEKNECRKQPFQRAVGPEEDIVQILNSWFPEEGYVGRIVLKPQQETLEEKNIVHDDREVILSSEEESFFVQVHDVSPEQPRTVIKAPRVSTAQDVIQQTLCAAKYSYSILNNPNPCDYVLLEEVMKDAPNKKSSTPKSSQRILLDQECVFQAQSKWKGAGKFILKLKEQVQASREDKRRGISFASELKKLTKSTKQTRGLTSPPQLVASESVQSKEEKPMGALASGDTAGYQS
# Sequence of R. norvegicus PLCε PH-COOH K2152A (Q99P84 837-2281 K2152A): as the sequence (Q99P84 837-2281 K2150A) above, with A1314K, K1316A counted along it
# Sequence of R. norvegicus PLCε PH-COOH variant (residues 837-2282) (Q99P84 837-2281, stated change not applied): as the sequence (Q99P84 837-2281 K2150A) above, with A1314K counted along it
binder,measurement,setting,value
B1,"Fold activation by Rap1A^G12V of lipase activity, liposome-based [3H]PIP2 hydrolysis assay",[1],0.9 fold
same,"Fold activation by Rap1A^G12V of lipase activity, liposome-based [3H]PIP2 hydrolysis assay, increasing concentrations of Rap1A^G12V·GTP",[2],3 fold
same,"Fold activation by Rap1A^G12V of lipase activity, liposome-based [3H]PIP2 hydrolysis assay",[3],1.8 fold
